This assay deals with VaERF16-GFP (Vitis amurensis 'Shuang You').

For VaMYB306-HA (natural protein), the dual-luciferase assay in tobacco leaves: activation of the VaPDF1.2 promoter (LUC/REN) by 62-SK-VaERF16 and 62-SK-VaMYB306 co-expressed (untagged full-length effectors) was 3.5 fold.

The values above are taken from PMC9452770.
